Measurements as given in patent US20240279618A1, “RECEPTOR TYROSINE KINASE AGONIST, COMPOSITION FOR CELL CULTURE MEDIUM, AND […] MAINTENANCE COMPOSITION” (SEKISUI CHEMICAL CO., LTD., priority 2021, published 2024).

B1: #1-L4-#1: dimer of VHH #1 with linker L4 (GSEGKSSGSGSESKST), SEQ ID NO: 23 (protein)
VHH: QLQLVESGGGSVQAGGSLRLSCAASRSLSRFNVWTWYRQAPVKQRELVASITKSGDTNYAESVKGRFIISRDDDKNTVYLQMNNLKSEDTGIYYCAGSYYSGSYLYPSPGGFSVWGQGTQVTVSSGSEGKSSGSGSESKSTQLQLVESGGGSVQAGGSLRLSCAASRSLSRFNVWTWYRQAPVKQRELVASITKSGDTNYAESVKGRFIISRDDDKNTVYLQMNNLKSEDTGIYYCAGSYYSGSYLYPSPGGFSVWGQGTQVTVSS
modifications: #1-L4-#1
B2: VHH Clone #2: alpaca-derived VHH single-domain antibody (monomer) binding FGFR1, amino acid sequence SEQ ID NO: 18 (protein)
VHH: QVQLVESGGGLVQAGGSLRLSCAVPGSIFRFNTMGWYRQPPGKQRELVAQMSRGGITKYGDSVKGRFTITRDNAKNTVHLQMNSLKPEDTAVYYCAGSYYSGSYYYPSPQGFSVWGQGTQVTVSP
modifications: VHH_Clone_#2

Key:
[1] = system: phospho-p44/42 MAPK (Erk½); assay: Agonist activity by Western blotting in NIH3T3 cells; assay type: cell-based, mouse; details: VHH 100 nM, 30 minutes
Procedure: In order to verify the agonist activity for VHH-C(represented by #1_C in the drawing), #1-L4-#1, and #1_Fc, which were obtained in Examples above, the measurement was performed as described below using Western blotting for a change in expression level of Phospho-p44/42 MAPK (Erk½). Furthermore, a basic fibroblast growth factor (bFGF; manufactured by Fujifilm Wako Pure Chemical Corporation) was used as a positive control.
As NIH3T3, those described in Example 7 were used. NIH3T3 cells were seeded on a 6-well plate for cell culture at 2× 10^5 cells/well, and culture was performed overnight (37° C., in a 5% CO2 incubator, with light shielded). After washing with a serum-free medium, bFGF (final concentration: 10 ng/mL) or VHH (final concentration: 100 nM) diluted with the serum-free medium was added thereto, and normal culture was performed for 30 minutes. Thereafter, the well was washed with ice-cooled PBS, and the cells were peeled off with a cell scraper, transferred to a tube, and centrifuged at 300×g for 5 minutes at 4° C. to recover the cells. Thereafter, the cells were solubilized with a phosphatase inhibitor-containing RIPA buffer and left to stand on ice for 30 minutes. After the solubilization reaction, centrifugation was performed at 12,000×g for 15 minutes at 4° C. to recover the supernatant. […]

[2] = system: NIH3T3 (mouse fibroblast cell line); assay: Cell growth assay with NIH3T3 (Cell Titer Glo luminescence); assay type: cell-based
Procedure: As a cell for measuring a cell growth activity, NIH3T3 (mouse fibroblast cell line) was obtained from ECACC through a domestic agent. The cell which was subjected to extended culture according to an ordinary method, and then freeze-preserved at −80° C. using CellBankeR1 plus (manufactured by Xenoac Co., Ltd.) was used. […]
The cell growth assay for FGF2 was performed according to the following procedure. […] The plate was further left to stand for 8 minutes, and then the luminescence in each well was measured with a Synergy HTX plate reader (manufactured by BioTek) with a sensitivity set (Gain) of 200 and a measurement time of 1 s/well.
The measurement was performed at three points at each concentration of the test substance, for the measurement at a single concentration, 100 ng/ml of FGF2 was used as a positive control and a condition of no addition was used as a negative control, and the VHH monomer was prepared with uniform 100-fold dilution, and measured. […] EC50 measurement data were obtained according to an ordinary method using a control software attached to a plate reader. The EC50 value was calculated by applying the 4-parameter fit.
Each stock of the VHH monomer (Clone #1: 2.65 mg/mL; Clone #2: 0.82 mg/mL-PBS) was diluted 100-fold to check the presence or absence of the cell growth activity. […] The vertical axis in FIG. 15 indicates a relative luminescence amount. […]

Molecule | agonist activity (expression of phosphorylated p44/42 MAPK (Erk½)) [1] | cell growth activity (relative luminescence amount, RLU) ([2]; NIH3T3, serum-free, 2 days, 4-fold dilution series, compared with FGF2) | cell growth activity of VHH monomer (relative luminescence amount) ([2]; NIH3T3, stock diluted 100-fold (Clone #2: 8.20 μg/mL))
B1 | exhibit an agonist activity |  | 
B2 |  | relative luminescence amount was low even at a high concentration | significantly exhibited a cell growth activity
